Numbering of substitutions follows the chain as printed. Each block holds one binder with its values, some of them ahead of it. Where no end group is shown, it is not given here.
Tests used:
[1] = target: T1, DNA ligase IV DNA binding domain (LigIV-DBD; residues 1-240), wild type (human, UniProt P49917 1-240); experiment: fluorescence polarisation
T1 sequence (looked up): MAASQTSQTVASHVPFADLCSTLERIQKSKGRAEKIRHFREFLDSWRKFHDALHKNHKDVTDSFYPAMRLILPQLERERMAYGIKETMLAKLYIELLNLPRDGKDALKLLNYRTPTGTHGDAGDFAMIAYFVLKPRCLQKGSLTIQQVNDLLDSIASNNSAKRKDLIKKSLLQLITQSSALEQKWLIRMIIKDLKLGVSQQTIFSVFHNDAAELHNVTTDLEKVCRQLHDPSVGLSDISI

LigIV-DBD V14A = target: T2, LigIV-DBD V14A (human, UniProt P49917 1-240, V14A); experiment: ITC
T2 sequence (looked up): T1 sequence (looked up) with V14A

[2] = target: T1, DNA ligase IV DNA binding domain …; experiment: ITC
LigIV-DBD D18H = target: T3, LigIV-DBD D18H (human, UniProt P49917 1-240, D18H); experiment: ITC
T3 sequence (looked up): T1 sequence (looked up) with D18H

binding result [1]: binds
B1: 6-FAM (6-carboxyfluorescein) labeled cArt-Pep (peptide)
peptide: DVPQWEVFFKR
modifications: also: 6-FAM label, position not given here

Kd (LigIV-DBD V14A): 13.6 µM
Kd [2]: 4.8 µM
stoichiometry N [2]: 1 ± 0.1
Kd (LigIV-DBD D18H): 9.1 µM
B2: cArt-Pep, peptide derived from the Artemis C-terminal region (485-DVPQWEVFFKR-495) (peptide)
peptide: DVPQWEVFFKR

Reference: PMC3538150 (Cell reports, 2012)
